assay: In-vivo cis-α-irone production screening of pMT7 and pMT12 mutants; type: cell-based, Escherichia coli; conditions: mutations made to pMT12; normalized to pMT12 (=1)
Description: Q60 was identified as another possible mutation site.
FIGS. 24a and 24b show the in-vivo and in-vitro cis-α-irone production of other possible single mutations to pMT12. The in-vitro results in FIG. 24b validate the mutations and in-vivo results in FIG. 24a. The mutations in FIG. 24 include Q11H (SEQ ID No. 23), V12R (SEQ ID No. 24), A95C (SEQ ID No. 25), H123Q (SEQ ID No. 26), E127T (SEQ ID No. 27), M137T (SEQ ID No. 28), D176V (SEQ ID No. 29), D176Y (SEQ ID No. 30). P191S (SEQ ID No. 31), P191V (SEQ ID No. 32), F212L (SEQ ID No. 33), S268H (SEQ ID No. 34), AND T272A (SEQ ID No. 35). The screening results in FIGS. 24 and 25 are semi-quantitative to identify beneficial mutants that give greater than one-fold change of irone production as compared to pMT12.
FIGS. 25a to 25c (and Table 4) show the in-vivo testing results of other possible mutations that may be made to pMT12 to improve its in-vivo production of cis-α-irone. FIGS. 25a to 25c each include two dotted lines to account for a 10% error bar to show the normalized fold change of 0.9 and 1.1.
The four plasmids were transformed into E. coli BL21 (DE3), ΔaroA, ΔaroB, ΔaroC, ΔserC or E. coli BL21 (DE3), ΔaroA, ΔaroB, ΔaroC, ΔserC, ΔmetJ strains and plated on Agar plate containing LB media (10 g, tryptone. 5 g, yeast extract. 10 g, NaCl) supplemented with appropriate antibiotics (100 mg/L ampicillin, 34 mg/L chloramphenicol, 50 mg/L kanamycin, and 100 mg/L spectinomycin). One colony was picked and inoculate into LB media with antibiotics. 1% of overnight culture was inoculated into 1 ml fresh auto-inducing chemically defined media. The chemical media contains carbon source solution: 0.5 g/L glucose, 10 g/L glycerol; inducer: 30 mM lactose and base media: 2 g/L ammonium sulfate, 4.2 g/L KH2PO4, 11.24 g/L K2HPO4, 1.7 g/L citric acid, 0.5 g/L MgSO4, and 10 mL/L trace element solution. The trace element solution (100×) contained 0.25 g/L CoCl2·6H2O, 1.5 g/L MnSO4·4H2O, 0.15 g/L CuSO4·2H2O, 0.3 g/L H3BO3, 0.25 g/L Na2MoO4·2H2O, 0.8 g/L Zn(CH3COO)2, 5 g/L Fe(III) citrate, and 0.84 g/L ethylenediaminetetra-acetic acid (EDTA) at pH 8.0. The culture was grown at 28° C. for 3 days and the products were extracted with 1 ml hexane for GCMS analysis. An example of a fed-batch process for α-ionone Is briefly described, overnight culture was inoculated into 2 L chemical media comprising the base media and 5 g/L glucose, at 37° C. and 30% DO. pH was controlled at 7 with base solution (14% ammonia and 0.5 M NaOH). Feed media (500 g/L glucose and 5 g/L MgSO4) was added into bioreactor once OD600 reached 5, at a rate of 7.15-25.75 g/h glucose for about 4-5 h until OD600 reached ˜30-40. Subsequently, 0.1 mM IPTG was added to induce the production, and feeding rate was kept at a constant rate of 10 g/h glucose, and the temperature was reduced to 30° C. DO was adjusted to 2% or 10%. Feeding was stopped at 113 h when 2 L feeding media was finished, but the culture was further incubated for 24 h. To capture the evaporated products, the exhaust was connected to 25 ml sunflower oil.

| Molecule | Fold change in in-vivo cis-α-irone production |
| --- | --- |
| A14R (protein, Modified from pMT1) MPQEARTPQQQVTRDEVGDWYDKFGEVYHLTLGESVHCGLWFPPDAPVPQDMELVTMSSQAQDRFTDYLIETLDPKAGQHLLDIGCGTGRPALKAARQRGIAVTGVAVSKEQIAAANRLAAGHGLTERLTFEVADAMRLPYEDESFDCAWAIESLDHMDRAKALGEAWRVLKPGGDLLVAEEVVTEELTEPETALFETLFALNVPPRLGEFFDIVSGAGFHTLSLKDLSADLAMTMNVFALGVYSRRAEFTERFGAEFVDGLLAGLGSAQETVIRKTRFFMATLRKPAV | 0.93 |
| M137D (protein, Modified from pMT1) MPQEARTPQQQVTADEVGDWYDKFGEVYHLTLGESVHCGLWFPPDAPVPQDMELVTMSSQAQDRFTDYLIETLDPKAGQHLLDIGCGTGRPALKAARQRGIAVTGVAVSKEQIAAANRLAAGHGLTERLTFEVADADRLPYEDESFDCAWAIESLDHMDRAKALGEAWRVLKPGGDLLVAEEVVTEELTEPETALFETLFALNVPPRLGEFFDIVSGAGFHTLSLKDLSADLAMTMNVFALGVYSRRAEFTERFGAEFVDGLLAGLGSAQETVIRKTRFFMATLRKPAV | 1.13 |
| M137H (protein, Modified from pMT1) MPQEARTPQQQVTADEVGDWYDKFGEVYHLTLGESVHCGLWFPPDAPVPQDMELVTMSSQAQDRFTDYLIETLDPKAGQHLLDIGCGTGRPALKAARQRGIAVTGVAVSKEQIAAANRLAAGHGLTERLTFEVADAHRLPYEDESFDCAWAIESLDHMDRAKALGEAWRVLKPGGDLLVAEEVVTEELTEPETALFETLFALNVPPRLGEFFDIVSGAGFHTLSLKDLSADLAMTMNVFALGVYSRRAEFTERFGAEFVDGLLAGLGSAQETVIRKTRFFMATLRKPAV | 1.11 |
| A14G (protein, Modified from pMT1) MPQEARTPQQQVTGDEVGDWYDKFGEVYHLTLGESVHCGLWFPPDAPVPQDMELVTMSSQAQDRFTDYLIETLDPKAGQHLLDIGCGTGRPALKAARQRGIAVTGVAVSKEQIAAANRLAAGHGLTERLTFEVADAMRLPYEDESFDCAWAIESLDHMDRAKALGEAWRVLKPGGDLLVAEEVVTEELTEPETALFETLFALNVPPRLGEFFDIVSGAGFHTLSLKDLSADLAMTMNVFALGVYSRRAEFTERFGAEFVDGLLAGLGSAQETVIRKTRFFMATLRKPAV | 0.92 |
| S268K (protein, Modified from pMT1) MPQEARTPQQQVTADEVGDWYDKFGEVYHLTLGESVHCGLWFPPDAPVPQDMELVTMSSQAQDRFTDYLIETLDPKAGQHLLDIGCGTGRPALKAARQRGIAVTGVAVSKEQIAAANRLAAGHGLTERLTFEVADAMRLPYEDESFDCAWAIESLDHMDRAKALGEAWRVLKPGGDLLVAEEVVTEELTEPETALFETLFALNVPPRLGEFFDIVSGAGFHTLSLKDLSADLAMTMNVFALGVYSRRAEFTERFGAEFVDGLLAGLGKAQETVIRKTRFFMATLRKPAV | 1.35 |
| A14L (protein, Modified from pMT1) MPQEARTPQQQVTLDEVGDWYDKFGEVYHLTLGESVHCGLWFPPDAPVPQDMELVTMSSQAQDRFTDYLIETLDPKAGQHLLDIGCGTGRPALKAARQRGIAVTGVAVSKEQIAAANRLAAGHGLTERLTFEVADAMRLPYEDESFDCAWAIESLDHMDRAKALGEAWRVLKPGGDLLVAEEVVTEELTEPETALFETLFALNVPPRLGEFFDIVSGAGFHTLSLKDLSADLAMTMNVFALGVYSRRAEFTERFGAEFVDGLLAGLGSAQETVIRKTRFFMATLRKPAV | 0.92 |
| A14P (protein, Modified from pMT1) MPQEARTPQQQVTPDEVGDWYDKFGEVYHLTLGESVHCGLWFPPDAPVPQDMELVTMSSQAQDRFTDYLIETLDPKAGQHLLDIGCGTGRPALKAARQRGIAVTGVAVSKEQIAAANRLAAGHGLTERLTFEVADAMRLPYEDESFDCAWAIESLDHMDRAKALGEAWRVLKPGGDLLVAEEVVTEELTEPETALFETLFALNVPPRLGEFFDIVSGAGFHTLSLKDLSADLAMTMNVFALGVYSRRAEFTERFGAEFVDGLLAGLGSAQETVIRKTRFFMATLRKPAV | 0.92 |
| M137N (protein, Modified from pMT1) MPQEARTPQQQVTADEVGDWYDKFGEVYHLTLGESVHCGLWFPPDAPVPQDMELVTMSSQAQDRFTDYLIETLDPKAGQHLLDIGCGTGRPALKAARQRGIAVTGVAVSKEQIAAANRLAAGHGLTERLTFEVADANRLPYEDESFDCAWAIESLDHMDRAKALGEAWRVLKPGGDLLVAEEVVTEELTEPETALFETLFALNVPPRLGEFFDIVSGAGFHTLSLKDLSADLAMTMNVFALGVYSRRAEFTERFGAEFVDGLLAGLGSAQETVIRKTRFFMATLRKPAV | 1.11 |
| A14T (protein, Modified from pMT1) MPQEARTPQQQVTTDEVGDWYDKFGEVYHLTLGESVHCGLWFPPDAPVPQDMELVTMSSQAQDRFTDYLIETLDPKAGQHLLDIGCGTGRPALKAARQRGIAVTGVAVSKEQIAAANRLAAGHGLTERLTFEVADAMRLPYEDESFDCAWAIESLDHMDRAKALGEAWRVLKPGGDLLVAEEVVTEELTEPETALFETLFALNVPPRLGEFFDIVSGAGFHTLSLKDLSADLAMTMNVFALGVYSRRAEFTERFGAEFVDGLLAGLGSAQETVIRKTRFFMATLRKPAV | 0.90 |
| M137S (protein, Modified from pMT1) MPQEARTPQQQVTADEVGDWYDKFGEVYHLTLGESVHCGLWFPPDAPVPQDMELVTMSSQAQDRFTDYLIETLDPKAGQHLLDIGCGTGRPALKAARQRGIAVTGVAVSKEQIAAANRLAAGHGLTERLTFEVADASRLPYEDESFDCAWAIESLDHMDRAKALGEAWRVLKPGGDLLVAEEVVTEELTEPETALFETLFALNVPPRLGEFFDIVSGAGFHTLSLKDLSADLAMTMNVFALGVYSRRAEFTERFGAEFVDGLLAGLGSAQETVIRKTRFFMATLRKPAV | 1.11 |
| S268R (protein, Modified from pMT1) MPQEARTPQQQVTADEVGDWYDKFGEVYHLTLGESVHCGLWFPPDAPVPQDMELVTMSSQAQDRFTDYLIETLDPKAGQHLLDIGCGTGRPALKAARQRGIAVTGVAVSKEQIAAANRLAAGHGLTERLTFEVADAMRLPYEDESFDCAWAIESLDHMDRAKALGEAWRVLKPGGDLLVAEEVVTEELTEPETALFETLFALNVPPRLGEFFDIVSGAGFHTLSLKDLSADLAMTMNVFALGVYSRRAEFTERFGAEFVDGLLAGLGRAQETVIRKTRFFMATLRKPAV | 1.23 |
| S268Q (protein, Modified from pMT1) MPQEARTPQQQVTADEVGDWYDKFGEVYHLTLGESVHCGLWFPPDAPVPQDMELVTMSSQAQDRFTDYLIETLDPKAGQHLLDIGCGTGRPALKAARQRGIAVTGVAVSKEQIAAANRLAAGHGLTERLTFEVADAMRLPYEDESFDCAWAIESLDHMDRAKALGEAWRVLKPGGDLLVAEEVVTEELTEPETALFETLFALNVPPRLGEFFDIVSGAGFHTLSLKDLSADLAMTMNVFALGVYSRRAEFTERFGAEFVDGLLAGLGQAQETVIRKTRFFMATLRKPAV | 1.32 |
